Test results taken from PMC4850058, “TRIP6 antagonizes the recruitment of A20 and CYLD to TRAF6 to promote the LPA2 receptor-mediated TRAF6 activation” (Cell Discovery, 2016).

Target: T1, purified recombinant TRIP6 (UniProt Q15654 1-476)
T1 construct: TRIP6; source: purified recombinant protein
T1 sequence (looked up): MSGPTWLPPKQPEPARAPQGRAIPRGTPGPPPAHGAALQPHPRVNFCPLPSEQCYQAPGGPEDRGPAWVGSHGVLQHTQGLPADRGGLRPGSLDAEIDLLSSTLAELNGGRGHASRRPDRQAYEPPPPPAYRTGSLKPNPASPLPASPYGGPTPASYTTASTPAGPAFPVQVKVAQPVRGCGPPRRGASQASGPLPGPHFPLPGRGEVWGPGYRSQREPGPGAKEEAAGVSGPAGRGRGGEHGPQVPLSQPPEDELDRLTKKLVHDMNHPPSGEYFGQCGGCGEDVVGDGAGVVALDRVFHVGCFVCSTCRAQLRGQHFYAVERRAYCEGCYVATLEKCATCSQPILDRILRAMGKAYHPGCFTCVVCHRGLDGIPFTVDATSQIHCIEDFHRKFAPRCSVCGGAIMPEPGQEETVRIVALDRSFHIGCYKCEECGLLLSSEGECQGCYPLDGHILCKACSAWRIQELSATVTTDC
Test: pull-down; purified recombinant TRIP6 incubated with GST, GST-TRAF6 or GST-CT, 4 °C, 3 h; anti-TRIP6 immunoblot
Details: both partners purified

binding result: binds
B1: GST-CT mutant containing residues 239–530 of TRAF6 (domain or fragment, UniProt P70196 239-530, looked up)
chain: PIPCTFSVFGCHEKMQRNHLARHLQENTQLHMRLLAQAVHNVNLALRPCDAASPSRGCRPEDPNYEETIKQLESRLVRQDHQIRELTAKMETQSMYVGELKRTIRTLEDKVAEMEAQQCNGIYIWKIGNFGMHLKSQEEERPVVIHSPGFYTGRPGYKLCMRLHLQLPTAQRCANYISLFVHTMQGEYDSHLPWPFQGTIRLTILDQSEALIRQNHEEVMDAKPELLAFQRPTIPRNPKGFGYVTFMHLEALRQGTFIKDDTLLVRCEVSTRFDMGGLRKEGFQPRSTDAGV
notes: TRAF6 carboxyl-terminal domain, residues 239-530; also called TRAF6-CT domain; carboxyl-terminal domain; source: purified recombinant GST-tagged protein (pGEX-6P3)
